These results are taken from the FLAb antibody collection (doi:10.7554/elife.23156).

B1: scFv; the commonest letter at each place (parent)
chain 1: EVKLDETGGGLVQPGRPMKLSCVASGFTFSDYWMNWVRQSPEKGLEWVAQIRNKPYNYETYYSDSVKGRFTISRDDSKSSVYLQMNNLRVEDMGIYYCTGSYYGMDYWGQGTSVTVS
chain 2: DVVMTQTPLSLPVSLGDQASISCRSSQSLVHSNGNTYLRWYLQKPGQSPKVLIYKVSNRFSGVPDRFSGSGSGTDFTLKISRVEAEDLGVYFCSQSTHVPWTFGGGTKLEIK

The data set “fluorescein” covers variants of B1. The experiment in a line: Kd (Tite-Seq). Particulars: with fluorescein; format: scFv 4-4-20, heavy + light.
The variants in data set [1] derive from B1. The experiment in a line: yeast surface expression (ratio to wild type); higher = more expressed. Particulars: format: scFv 4-4-20, heavy + light.

In general, Kd refers to a measure of binding affinity in units of concentration. For the variant chain 1 G100A S101L, in the data set with fluorescein, the Kd was at least 10 µM. In data set [1], the yeast surface expression came out at 0.553.
On to chain 1 G100S S101D, for which the Kd with fluorescein was at least 10 µM. Besides, in data set [1], the yeast surface expression turned out to be 0.892.
The like results for chain 1 D106P were, in that order, at least 10 µM and 0.635.
For the variant chain 1 D106Q, in the data set with fluorescein, the Kd stood at 5.66 µM. In data set [1], the yeast surface expression is 0.846.
Take chain 1 D31T Y32G: the Kd with fluorescein was 0.0391 µM. Further, the yeast surface expression in data set [1] worked out at 0.798.
Regarding chain 1 S30T V37W, the Kd in the data set with fluorescein is at least 10 µM. Further, the yeast surface expression in data set [1] came to 0.671.
The like results for chain 1 Y107R G109H were, in that order, at least 10 µM and 0.277.
Taken in the same sequence, the figures for chain 1 G100F S101T G104Y were at least 10 µM and 0.437.
chain 1 G100K G104H: the Kd with fluorescein was at least 10 µM. Moreover, in data set [1], the yeast surface expression stood at 0.322.
Taken in the same sequence, the figures for chain 1 S30Q D31E N35K were at least 10 µM and 2.59.
In the case of chain 1 F29D Y32E, in the data set with fluorescein, the Kd is at least 10 µM. Further, the yeast surface expression in data set [1] was determined as 0.599.
Taken in the same sequence, the figures for chain 1 W33E V37L were at least 10 µM and 0.674.
In the case of chain 1 Y102V M105H G109V, the Kd in the data set with fluorescein is at least 10 µM. For the same variant, the yeast surface expression in data set [1] was 0.276.
The like results for chain 1 M34P N35R were, in that order, at least 10 µM and 1.16.
The like results for chain 1 Y102R M105G were, in that order, at least 10 µM and 0.754.
In the case of chain 1 S101R Y107C, the Kd with fluorescein was at least 10 µM. Moreover, in data set [1], the yeast surface expression is 0.286.
Taken in the same sequence, the figures for chain 1 F29W W36Y were at least 10 µM and 0.591.
Regarding chain 1 Y32L, the Kd with fluorescein amounted to 0.435 µM. The yeast surface expression in data set [1] was 0.893.
Taken in the same sequence, the figures for chain 1 W33F N35T were at least 10 µM and 0.824.
The like results for chain 1 G104L G109K were, in that order, at least 10 µM and 0.179.
Taken in the same sequence, the figures for chain 1 F29I N35A were at least 10 µM and 0.817.
As for chain 1 S30G M34I, in the data set with fluorescein, the Kd came out at 0.00239 µM. Also, the yeast surface expression in data set [1] turned out to be 0.889.
The like results for chain 1 M105P were, in that order, at least 10 µM and 0.648.
On to chain 1 M105H, for which the Kd with fluorescein was at least 10 µM. Moreover, in data set [1], the yeast surface expression stood at 1.06.
Taken in the same sequence, the figures for chain 1 M105A were at least 10 µM and 1.01.
Taken in the same sequence, the figures for chain 1 S101D G109I were at least 10 µM and 0.22.
Taken in the same sequence, the figures for chain 1 G104K G109F were at least 10 µM and 0.282.
For chain 1 T28H W36G, the Kd with fluorescein is at least 10 µM. Besides, the yeast surface expression in data set [1] is 2.76.
The like results for chain 1 S101C Y107S were, in that order, at least 10 µM and 0.457.
Taken in the same sequence, the figures for chain 1 Y107G W108A were at least 10 µM and 0.528.
The like results for chain 1 Y103V D106H were, in that order, at least 10 µM and 0.384.
Consider chain 1 G104T G109D, for which, in the data set with fluorescein, the Kd is at least 10 µM. For the same variant, in data set [1], the yeast surface expression is 0.235.
Take chain 1 G100V W108N: the Kd with fluorescein is at least 10 µM. Moreover, the yeast surface expression in data set [1] turned out to be 0.468.
Turning to chain 1 M34F N35E, the Kd in the data set with fluorescein is at least 10 µM. For the same variant, in data set [1], the yeast surface expression was determined as 0.811.
The like results for chain 1 Y32S W33F were, in that order, at least 10 µM and 0.984.
Take chain 1 S30M M34L: in the data set with fluorescein, the Kd was 0.00299 µM. Also, the yeast surface expression in data set [1] was found to be 0.94.
The like results for chain 1 D106W Y107F were, in that order, at least 10 µM and 0.264.
With chain 1 Y103R M105K, the Kd with fluorescein came to 0.00493 µM. For the same variant, the yeast surface expression in data set [1] is 0.768.
On to chain 1 S30L W33E, for which the Kd with fluorescein was at least 10 µM. Moreover, the yeast surface expression in data set [1] was found to be 0.645.
Taken in the same sequence, the figures for chain 1 M105D D106I were at least 10 µM and 0.844.
As for chain 1 S101C G109A, in the data set with fluorescein, the Kd was at least 10 µM. For the same variant, the yeast surface expression in data set [1] was found to be 0.363.
The like results for chain 1 W33Q N35W were, in that order, at least 10 µM and 1.01.
Taken in the same sequence, the figures for chain 1 W33Q N35E were at least 10 µM and 0.594.
The like results for chain 1 M34E W36M were, in that order, at least 10 µM and 0.428.
In the case of chain 1 Y107V W108D, the Kd with fluorescein was at least 10 µM. Moreover, the yeast surface expression in data set [1] was 0.425.
Regarding chain 1 W33V N35T, the Kd with fluorescein is at least 10 µM. The yeast surface expression in data set [1] stood at 0.89.
Taken in the same sequence, the figures for chain 1 Y103H Y107Q were at least 10 µM and 0.941.
The like results for chain 1 F29T D31P were, in that order, at least 10 µM and 1.06.
Taken in the same sequence, the figures for chain 1 F29W M34W were at least 10 µM and 0.913.
For the variant chain 1 S30R M34S, the Kd in the data set with fluorescein worked out at 0.11 µM. In addition, in data set [1], the yeast surface expression turned out to be 0.717.
Taken in the same sequence, the figures for chain 1 G100H Y103Q G109A were at least 10 µM and 0.293.
As to chain 1 Y103I W108S, the Kd in the data set with fluorescein was at least 10 µM. Further, in data set [1], the yeast surface expression amounted to 0.397.
Taken in the same sequence, the figures for chain 1 G100E M105D were at least 10 µM and 0.296.
Take chain 1 S101N G104N: in the data set with fluorescein, the dissociation constant Kd was at least 10 µM. For the same variant, the yeast surface expression in data set [1] was found to be 0.806.
Taken in the same sequence, the figures for chain 1 F29L V37P were at least 10 µM and 0.419.
With chain 1 Y102R Y103P, the Kd with fluorescein is at least 10 µM. In addition, the yeast surface expression in data set [1] was 0.979.
For the variant chain 1 Y103L Y107S, in the data set with fluorescein, the Kd was determined as 0.55 µM. The yeast surface expression in data set [1] was 0.878.
Taken in the same sequence, the figures for chain 1 T28G V37P were 0.00519 µM and 0.581.
